Where a chain is given by its changes, count along the chain named.

The labels stand for the following.
T1: VEGFR-3-Fc (UniProt P35916 25-328)
T1 construct: domain: first three Ig domains; conditioned supernatant of 293T cells; also called VEGFR-3-Fc fusion protein; not shown: Fc fragment of the pIg vector
T1 sequence (looked up): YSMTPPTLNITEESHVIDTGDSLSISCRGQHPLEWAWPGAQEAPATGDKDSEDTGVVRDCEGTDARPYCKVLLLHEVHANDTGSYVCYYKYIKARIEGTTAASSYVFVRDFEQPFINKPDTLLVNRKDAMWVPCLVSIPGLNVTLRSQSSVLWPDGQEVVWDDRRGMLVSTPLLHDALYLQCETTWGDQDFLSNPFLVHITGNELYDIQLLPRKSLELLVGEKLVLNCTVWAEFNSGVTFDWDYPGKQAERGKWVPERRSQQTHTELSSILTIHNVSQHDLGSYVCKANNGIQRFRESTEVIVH

B1: 34-11 (ligand)
chain: GQNHHEVVKSIDNEWRKTQCMPIETLVDIFQEFGVATNTFFKPSCVPLMRCGGCCNSEGLQCVPTEESNITMQIMRITVPLSQGPKPVTISFLQHNKCECRPKKD
B2: 34-13 (ligand)
chain: B1 chain with S57D, Q61E, L93A, Q94N, N96T, K97S, E99R, R101M, P102S, K104L
B3: 33-2 (ligand)
chain: GQNHHEVVKSIDNEWRKTQCMPIETLVDIFQEYPDEIEYIFKPPCVSVYRCGGCCNDEGLECMNTSTSYLSKTLFEIKPHQGQHIGEMSFLQHNKCECRPKKD
B4: 33-6 (ligand)
chain: B3 chain with L91A, Q92N, N94T, K95S, E97R, R99M, P100S, K102L
B5: 33-4 (ligand)
chain: B3 chain with D57S, E61Q
B6: 33-8 (ligand)
chain: B3 chain with D57S, E61Q, L91A, Q92N, N94T, K95S, E97R, R99M, P100S, K102L
B7: 23-7 (ligand)
chain: AHYNTEILKSIDNEWRKTQCMPREVCIDVGKEYPDEIEYIFKPPCVSVYRCGGCCNSEGLQCVPTEESNITMQIMRIKPHQGQHIGEMSFANHTSCRCMSKLD
B8: 33-5 (ligand)
chain: GQNHHEVVKSIDNEWRKTQCMPIETLVDIFQEYPDEIEYIFKPPCVSVYRCGGCCNDEGLECVPTEESNITMQIMRIKPHQGQHIGEMSFANHTSCRCMSKLD
B9: 33-7 (ligand)
chain: B8 chain with D57S, E61Q
B10: 34-1 (ligand)
chain: GQNHHEVVKSIDNEWRKTQCMPIETLVDIFQEFGVATNTFFKPSCVPLMRCGGCCNDEGLECVPTEESNITMQIMRIKPHQGQHIGEMSFLQHNKCECRPKKD
B11: 34-5 (ligand)
chain: B10 chain with L91A, Q92N, N94T, K95S, E97R, R99M, P100S, K102L
B12: 34-3 (ligand)
chain: B10 chain with D57S, E61Q
B13: 34-7 (ligand)
chain: B10 chain with D57S, E61Q, L91A, Q92N, N94T, K95S, E97R, R99M, P100S, K102L
B14: 21-1 (ligand)
chain: AHYNTEILKSIDNEWRKTQCMPREVCIDVGKEYPDEIEYIFKPSCVPLMRCGGCCNDEGLECVPTEESNITMQIMRIKPHQGQHIGEMSFLQHNKCECRPKKD
B15: 33-13 (ligand)
chain: GQNHHEVVKSIDNEWRKTQCMPIETLVDIFQEYPDEIEYIFKPPCVSVYRCGGCCNDEGLECVPTEESNITMQIMRITVPLSQGPKPVTISFANHTSCRCMSKLD
B16: 33-15 (ligand)
chain: B15 chain with D57S, E61Q
B17: 23-13 (ligand)
chain: AHYNTEILKSIDNEWRKTQCMPREVCIDVGKEYPDEIEYIFKPPCVSVYRCGGCCNDEGLECVPTEESNITMQIMRITVPLSQGPKPVTISFANHTSCRCMSKLD
B18: 23-15 (ligand)
chain: B17 chain with D57S, E61Q
B19: 33-14 (ligand)
chain: GQNHHEVVKSIDNEWRKTQCMPIETLVDIFQEYPDEIEYIFKPPCVSVYRCGGCCNDEGLECMNTSTSYLSKTLFEITVPLSQGPKPVTISFANHTSCRCMSKLD
B20: 33-16 (ligand)
chain: B19 chain with D57S, E61Q

The target in the first experiment is T2, VEGFR-2-Fc (UniProt P35968 20-322).
T2 construct: domain: first 3 Ig domains; conditioned supernatant of 293T cells; also called VEGFR-2-Fc fusion protein; not shown: Fc fragment of the pIg vector
T2 sequence (P35968 20-322): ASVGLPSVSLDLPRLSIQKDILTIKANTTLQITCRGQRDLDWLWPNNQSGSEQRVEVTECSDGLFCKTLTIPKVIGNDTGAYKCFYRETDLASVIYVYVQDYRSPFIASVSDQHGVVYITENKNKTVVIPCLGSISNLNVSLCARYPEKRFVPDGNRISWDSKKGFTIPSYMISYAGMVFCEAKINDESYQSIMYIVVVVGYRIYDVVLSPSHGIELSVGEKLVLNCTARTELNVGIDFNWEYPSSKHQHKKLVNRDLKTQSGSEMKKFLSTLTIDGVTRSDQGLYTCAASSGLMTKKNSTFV
Briefly: receptor-Fc IP. In short, it runs like this:
(§1)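 Binding of ligand from sample supernatant measured by pentahistidine-antibody immunoprecipitation. IP mix: PBS with 1.5% BSA, 0.06% Tween 20, 3 μg/ml heparin and 400 ng/ml fusion protein, added 1:2 to sample supernatant.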
For the molecule B1, the binding result was “no binding”.

In the case of B2, the binding result is “no binding”.

Turning to B3, the binding result was “no binding”.

B4: the binding result is reported as “no binding”.

Turning to B5, the binding result is on record as “no binding”.

Turning to B6, the binding result is “no binding”.

As to B7, the binding result is “no binding”.

Turning to B8, the binding result was “no binding”.

For the molecule B9, the binding result is on record as “no binding”.

Turning to B10, the binding result is recorded as “no binding”.

B11: the binding result is “no binding”.

For the molecule B12, the binding result is “no binding”.

For the molecule B13, the binding result is given as “no binding”.

For the molecule B14, the binding result was “no binding”.

As to B15, the binding result is on record as “no binding”.

As to B16, the binding result is “no binding”.

With B17, the binding result was “no binding”.

Turning to B18, the binding result was “no binding”.

Regarding B19, the binding result is on record as “no binding”.

B20: the binding result was “no binding”.

The target in a further experiment is T1, VEGFR-3-Fc. The experiment can be described thus: receptor-Fc IP. In short, it runs like this: as §1
Consider B1, for which the binding result is given as “no binding”.

As for B2, the binding result is recorded as “no binding”.

Take B3: the binding result is reported as “no binding”.

With B4, the binding result is “no binding”.

Regarding B5, the binding result is reported as “no binding”.

As to B6, the binding result was “no binding”.

In the case of B7, the binding result was “no binding”.

As to B8, the binding result is on record as “no binding”.

With B9, the binding result was “no binding”.

On to B10, for which the binding result was “no binding”.

Turning to B11, the binding result was “no binding”.

As to B12, the binding result was “no binding”.

Turning to B13, the binding result is “no binding”.

For the molecule B14, the binding result is “no binding”.

Consider B15, for which the binding result was “no binding”.

In the case of B16, the binding result is recorded as “no binding”.

For the molecule B17, the binding result is “no binding”.

On to B18, for which the binding result is recorded as “no binding”.

As to B19, the binding result is “no binding”.

Consider B20, for which the binding result is “no binding”.

Another experiment deals with T3, VEGFR-1-Fc (UniProt P17948 27-338).
T3 construct: domain: first three Ig domains; expressed in Drosophila S2 cells, purified on Protein A sepharose; also called VEGFR-1-Fc fusion protein; not shown: Fc fragment from the Signal-pIgPlus vector
T3 sequence (P17948 27-338): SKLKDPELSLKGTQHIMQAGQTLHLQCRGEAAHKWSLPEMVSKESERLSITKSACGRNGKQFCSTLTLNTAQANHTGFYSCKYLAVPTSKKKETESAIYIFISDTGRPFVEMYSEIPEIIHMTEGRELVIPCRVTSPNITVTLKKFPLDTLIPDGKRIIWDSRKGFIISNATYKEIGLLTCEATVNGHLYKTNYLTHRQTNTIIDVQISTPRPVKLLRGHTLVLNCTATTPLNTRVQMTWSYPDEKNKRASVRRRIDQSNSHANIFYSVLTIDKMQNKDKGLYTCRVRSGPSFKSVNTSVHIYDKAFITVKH
The experiment can be described thus: receptor-Fc IP. Put shortly: as §1
Consider B1, for which the binding result is “no binding”.

B2: the binding result is recorded as “no binding”.

B3: the binding result is reported as “no binding”.

As to B4, the binding result was “no binding”.

In the case of B5, the binding result is “no binding”.

Consider B6, for which the binding result is listed as “no binding”.

For B7, the binding result was “no binding”.

On to B8, for which the binding result is listed as “no binding”.

In the case of B9, the binding result was “no binding”.

For B10, the binding result is “no binding”.

As to B11, the binding result was “no binding”.

On to B12, for which the binding result was “no binding”.

B13: the binding result is recorded as “no binding”.

Consider B14, for which the binding result is listed as “no binding”.

For B15, the binding result is “no binding”.

Consider B16, for which the binding result was “no binding”.

As to B17, the binding result is “no binding”.

Consider B18, for which the binding result is “no binding”.

In the case of B19, the binding result is recorded as “no binding”.

Consider B20, for which the binding result was “no binding”.

Source of the values: patent US20080058263A1 (published 2008).
